Measured values taken from US20180125988A1, “TARGETED XTEN CONJUGATE COMPOSITIONS AND METHODS OF MAKING SAME” (AMUNIX OPERATING INC., priority 2014, published 2018).

B1: XTEN432-3xMMAE (protein)
chain: SAGSPTAEAAGCGTAEAAGTSESATPESGPGSEPATSGSETPGTSESATPESGPGTSTEPSEGSAPGTSESATPESGPGSPAGSPTSTEEGSPAGSPTSTEEGSPAGSPTSTEEGTSESATPESGPGTSTEPSEGSAPGTSESATPESGPGSEPATSGSETPGTSESATPESGPGSEPATSGSETPGTSESATPESGPGTSTEPSEGSAPTAEAAGCGTAEAAGSPAGSPTSTEEGTSESATPESGPGSEPATSGSETPGTSESATPESGPGSPAGSPTSTEEGSPAGSPTSTEEGTSTEPSEGSAPGTSESATPESGPGTSESATPESGPGTSESATPESGPGSEPATSGSETPGSEPATSGSETPGSPAGSPTSTEEGTSTEPSEGSAPGTSTEPSEGSAPGSEPATSGSETPTAEAAGCGTAEAASASR
B2: XTEN432-3xDM1 (protein)
chain: B1 chain

Biological target: HER2 (ErbB2, HER2/neu receptor) on HER2 expressing tumor cell lines (human (human tumor cell lines)) (UniProt P04626)
Assay: cell-based or functional assay

Row | Binder | IC50, CellTiter-Glo cytotoxicity, BT474 cells | IC50, CellTiter-Glo cytotoxicity, HCC1954 cells | IC50, CellTiter-Glo cytotoxicity, NCI-N87 cells | IC50, CellTiter-Glo cytotoxicity, SK-BR-3 cells | IC50, CellTiter-Glo cytotoxicity, SK-OV-3 cells
1 | B1 | > 0.3 µM | > 0.3 µM | > 1 µM | > 0.3 µM | > 0.7 µM
2 | B2 | > 1 µM | > 0.36 µM | > 1 µM | > 1 µM | > 0.7 µM
